Data published in article PMC3689846.

Legend:
Experiment in all cases: SPR
[1] = target: Core.BaL-GT1 (germline-targeting variant of core gp120) (HIV-1 strain BaL (from the name))
[2] = target: Core.HXB2 (core gp120 of HIV-1 strain HxB2, wild-type CD4 binding site) (HIV-1 strain HxB2)
[3] = target: eOD-GT6 (germline-targeting engineered outer domain of gp120) (HIV-1 strain HxB2)

Substance | Kd [1] [nM] | Kd [2] [nM] | Kd [3] [nM]
3BNC60 (mature) (antibody) | 4 | – | –
12A12 (mature) (antibody) | – | 6 | –
GL-3BNC60 (predicted germline precursor of 3BNC60) (antibody) | – | > 100000 | –
GL-12A12 (predicted germline precursor of 12A12) (antibody) | – | > 100000 | –
GL-NIH45-46 (predicted germline precursor of NIH45-46) (antibody) | > 100000 | – | –
GL-PGV04 (predicted germline precursor of PGV04) (antibody) | > 100000 | > 100000 | –
GL-PGV19 (predicted germline precursor of PGV19) (antibody) | – | > 100000 | 19
GL-PGV20 (predicted germline precursor of PGV20) (antibody) | – | > 100000 | –
GL-VRC-CH31 (predicted germline precursor of VRC-CH31) (antibody) | – | > 100000 | –
PGV20 (mature) (antibody) | 4 | 19 | 6
